The labels stand for the following.
T1: human P2X4R peptide (extracellular 13-amino-acid peptide fragment of human P2X4R) (Homo sapiens, UniProt Q99571, biotinylated (position not given) where immobilised as ligand)
T1 construct: P2X purinoceptor 4, human; extracellular 13-amino-acid peptide fragment, the counterpart of rat residues 301-313 (11/13 residues identical to the rat peptide); also called human P2X4 peptide; source: synthetic peptide (GenScript)
T1 chain: RDLAGNEQRTLIK

B1: humanized P2X4R scFv HC3-LC3 (lead) (scFv, V domains shown)
VH: EVQLVESGGGLVQPGGSLRLSCATSGFTFTDYYMHWVRQAPGKGLEWVGFIRNKANGYTTEYSASVKGRFTISRDNSKNTLYLQMNSLRAEDTAVYYCARWEGDLLYAMDYWGQGTLVTVSS
VL: DIQMTQSPSSLSASVGDRVTITCRASQGISNYLNWYQQKPGKAPKLLIYYTSSLHSGVPSRFSGSGSGTDFTLTISSLQPEDFAYYYCQQYSKLPWTFGGGTKVEIK
notes: humanized VH hscFv95.HC3 (CDRs of murine mscFv95 grafted on a human framework); 15-amino-acid linker, printed as (G4S)3; humanized VL hscFv95.LC3, as the VL of m3; Cloned NcoI/NotI into a pET32a-His vector; Captured on HIS1K penta-His sensors in the Octet assay; also called hscFv HC3-LC3; P2X4R hscFv; source: E. coli Rosetta-gami (DE3), purified (HisTrap, SEC)
B2: humanized P2X4R scFv HC1-LC1 (scFv, V domains shown)
VH: EVKLVESGGGLVQPGGSLRLSCATSGFTFTDYYMSWVRQPPGKALEWLGFIRNKANGYTTEYSASVKGRFTISRDNSQSILYLQMNTLRAEDSATYYCARWEGDLLYAMDYWGQGTSVTVSS
VL: DIQMTQTTSSLSASLGDRVTISCSASQGISNYLNWYQQKPDGTVKLLIYYTSSLHSGVPSRFSGSGSGTDYSLTISNLEQEDIATYYCQQYSKLPWTFGGGTKLEIK
notes: humanized VH hscFv95.HC1 (CDRs of murine mscFv95 grafted on a human framework); 15-amino-acid linker, printed as (G4S)3; humanized VL hscFv95.LC1 (CDRs of murine mscFv95 grafted on a human framework); Cloned NcoI/NotI into a pET32a-His vector; also called hscFv95.HC1 + hscFv95.LC1; source: E. coli Rosetta-gami (DE3), purified (HisTrap, SEC)
B3: humanized P2X4R scFv HC2-LC1 (scFv, V domains shown)
VH: QVQLQESGPGLVKPSQTLSLTCTTSGFTFTDYYMSWVRQAPGKGLEWIGFIRNKANGYTTEYSASVKGRFTISRDNSKNQFSLRLSSVTAADTAVYYCARWEGDLLYAMDYWGQGTTVTVSS
VL: DIQMTQTTSSLSASLGDRVTISCSASQGISNYLNWYQQKPDGTVKLLIYYTSSLHSGVPSRFSGSGSGTDYSLTISNLEQEDIATYYCQQYSKLPWTFGGGTKLEIK
notes: humanized VH hscFv95.HC2 (CDRs of murine mscFv95 grafted on a human framework); 15-amino-acid linker, printed as (G4S)3; humanized VL hscFv95.LC1, as the VL of m1; Cloned NcoI/NotI into a pET32a-His vector; also called hscFv95.HC2 + hscFv95.LC1; source: E. coli Rosetta-gami (DE3), purified (HisTrap, SEC)
B4: humanized P2X4R scFv HC3-LC1 (scFv, V domains shown)
VH: EVQLVESGGGLVQPGGSLRLSCATSGFTFTDYYMHWVRQAPGKGLEWVGFIRNKANGYTTEYSASVKGRFTISRDNSKNTLYLQMNSLRAEDTAVYYCARWEGDLLYAMDYWGQGTLVTVSS
VL: DIQMTQTTSSLSASLGDRVTISCSASQGISNYLNWYQQKPDGTVKLLIYYTSSLHSGVPSRFSGSGSGTDYSLTISNLEQEDIATYYCQQYSKLPWTFGGGTKLEIK
notes: humanized VH hscFv95.HC3, as the VH of m4; 15-amino-acid linker, printed as (G4S)3; humanized VL hscFv95.LC1, as the VL of m1; Cloned NcoI/NotI into a pET32a-His vector; also called hscFv95.HC3 + hscFv95.LC1; source: E. coli Rosetta-gami (DE3), purified (HisTrap, SEC)
B5: humanized P2X4R scFv HC2-LC3 (scFv, V domains shown)
VH: QVQLQESGPGLVKPSQTLSLTCTTSGFTFTDYYMSWVRQAPGKGLEWIGFIRNKANGYTTEYSASVKGRFTISRDNSKNQFSLRLSSVTAADTAVYYCARWEGDLLYAMDYWGQGTTVTVSS
VL: DIQMTQSPSSLSASVGDRVTITCRASQGISNYLNWYQQKPGKAPKLLIYYTSSLHSGVPSRFSGSGSGTDFTLTISSLQPEDFAYYYCQQYSKLPWTFGGGTKVEIK
notes: humanized VH hscFv95.HC2, as the VH of m2; 15-amino-acid linker, printed as (G4S)3; humanized VL hscFv95.LC3 (CDRs of murine mscFv95 grafted on a human framework); Cloned NcoI/NotI into a pET32a-His vector; also called hscFv95.HC2 + hscFv95.LC3; source: E. coli Rosetta-gami (DE3), purified (HisTrap, SEC)

The first assay concerns the target T1, human P2X4R peptide (extracellular …). The experiment in a line: BLI; Octet RED384; hscFv (5 ug/mL) captured on HIS1K penta-His sensors; peptide in 7 three-fold dilutions, 1.03-250 nM; 1X KB (PBS pH 7.4, 0.02% Tween-20, 0.1% albumin, 0.05% sodium azide); association 240 s, dissociation 420 s; global 1:1 fit. Conditions: both partners purified.
For the molecule B1, binding was put at a Kd of 2.5 nM. This counts as single-digit nanomolar.

A further assay shares this target. The experiment in a line: ELISA; indirect ELISA, purified hscFvs on human P2X4 peptide, triplicate wells (Figure 3B). The following applies: both partners purified.
B2 yielded a Kd of 24 nM.
Still for that read-out and setting: the figure for B3 is 12 nM.
Molecule B1 gave a Kd of 2.3 nM.
Still for that read-out and setting: the result for B4 reads 4.7 nM.
The same measure, in the same setting: the figure for B5 is 29 nM.

(Values after article PMC12248463, “Humanized scFv Molecule Specific to an Extracellular Epitope of P2X4R as Therapy for Chronic Pain Management” (Cells, 2025).)
